T1: cynomolgus monkey FcγRIIa3 extracellular domain with C-terminal His-tag (cynomolgus monkey)
T1 construct: also called cyno FcγRIIa3; FcgRIIa3
T1 chain: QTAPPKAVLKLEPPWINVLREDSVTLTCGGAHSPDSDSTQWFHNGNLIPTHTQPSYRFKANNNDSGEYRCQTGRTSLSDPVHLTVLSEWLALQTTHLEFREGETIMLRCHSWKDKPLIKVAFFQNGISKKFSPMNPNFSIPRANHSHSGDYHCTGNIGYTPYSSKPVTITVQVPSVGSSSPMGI

T2: cynomolgus monkey FcγRIIIaS extracellular domain with C-terminal His-tag (cynomolgus monkey, UniProt Q8SPW2 21-206 at identity 1.00))
T2 construct: also called cyno FcγRIIIaS; FcgRIIIaS
T2 chain: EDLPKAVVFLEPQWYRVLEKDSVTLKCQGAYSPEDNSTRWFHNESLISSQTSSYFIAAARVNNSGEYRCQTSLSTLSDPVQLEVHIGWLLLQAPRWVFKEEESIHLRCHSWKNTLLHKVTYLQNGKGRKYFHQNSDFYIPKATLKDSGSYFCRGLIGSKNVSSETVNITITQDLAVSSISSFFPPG

T3: human FcγRIIaR extracellular domain with C-terminal His-tag (human, UniProt P12318 34-217)
T3 construct: also called human FcγRIIa (type R); FcgRIIaR
T3 chain: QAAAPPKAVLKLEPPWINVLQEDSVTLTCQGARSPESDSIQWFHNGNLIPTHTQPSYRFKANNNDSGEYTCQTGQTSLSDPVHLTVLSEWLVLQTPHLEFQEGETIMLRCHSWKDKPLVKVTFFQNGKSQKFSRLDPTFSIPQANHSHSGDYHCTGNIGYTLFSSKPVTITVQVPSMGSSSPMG

T4: cynomolgus monkey FcγRIIIaS extracellular domain with C-terminal His-tag (cynomolgus monkey, UniProt Q8SPW2 21-206 at identity 1.00))
T4 construct: also called cyno FcgRIIIaS; cynoFcγRIIIaS
T4 chain: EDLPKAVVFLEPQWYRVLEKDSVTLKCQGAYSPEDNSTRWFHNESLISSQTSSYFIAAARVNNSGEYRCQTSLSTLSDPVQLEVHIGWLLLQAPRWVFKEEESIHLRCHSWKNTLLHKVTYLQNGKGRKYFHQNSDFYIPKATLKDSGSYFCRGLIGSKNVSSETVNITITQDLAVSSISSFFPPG

T5: human FcγRIIb extracellular domain with C-terminal His-tag (human, UniProt P31994 43-217)
T5 construct: also called human FcgRIIb
T5 sequence: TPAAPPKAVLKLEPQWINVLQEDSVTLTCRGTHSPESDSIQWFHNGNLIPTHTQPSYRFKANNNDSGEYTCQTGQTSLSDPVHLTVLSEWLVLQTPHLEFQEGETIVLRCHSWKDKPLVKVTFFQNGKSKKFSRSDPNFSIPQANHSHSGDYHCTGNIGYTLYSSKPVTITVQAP


Key:
[1] = molecular target: T1, cynomolgus monkey FcγRIIa3 …; test: SPR; KD of SG1 / KD of variant
[2] = molecular target: T2, cynomolgus monkey FcγRIIIaS …; test: SPR; KD of SG1 / KD of variant
[3] = molecular target: T3, human FcγRIIaR extracellular domain …; test: SPR; KD of SG1 / KD of variant
[4] = molecular target: T4, cynomolgus monkey FcγRIIIaS …; test: SPR, KD(parent SG1)/KD(variant)
[5] = molecular target: T5, human FcγRIIb extracellular domain with …; test: SPR, KD(parent SG1)/KD(variant)

Row | Binder | KD fold (SG1 = 1) [1] [fold] | KD fold (SG1 = 1) [2] [fold] | KD fold (SG1 = 1) [3] [fold] | KD fold (SG1 = 1) [4] [fold] | KD fold (SG1 = 1) [5] [fold]
1 | M103205H795-MY229 (heavy chain) with M103202L889-SK1 (light chain) (antibody, human IgG1, kappa, name in EU numbering, Substitutions introduced into M103205H795-SG1; positions in EU numbering) heavy: QVTLKESGPVLVKPTETLTLTCTVSGIDLSHDDISWVRQAPGKGLEWVGIISYAGSTYYASWAKGRLTISKDTSKNQVVLTMTNMDPVDTATYYCARGVPAYSHGGDLWGQGTLVTVSSASTKGPSVFPLAPSSKSTSGGTAALGCLVKDYFPEPVTVSWNSGALTSGVHTFPAVLQSSGLYSLSSVVTVPSSSLGTQTYICNVNHKPSNTKVDKKVEPKSCDKTHTCPPCPAPELLGYPSVFLFPPKPKDTLMISRTPEVTCVVVDVSDEDPEVKFNWYVDGVEVHNAKTKPREELYNSTYRVVSVLTVLHQDWLNGKEYKCKVSNKALPKPIEKTISKAKGQPREPQVYTLPPSREEMTKNQVSLTCLVKGFYPSDIAVEWESNGQPENNYKTTPKVLDSDGSFFLYSKLTVDKSRWQQGNVFSCSVMHEALHNHYTQKSLSLSP light: DIVMTQSPATLSLSPGERATLSCTSSQSVYHANWLSWFQQKPGQPPKLLIYWASTLAYGVPSRFSGSGSGTDFTLTISSLQPEDAATYYCAGGYGGGRYAFGQGTKVEIKRTVAAPSVFIFPPSDEQLKSGTASVVCLLNNFYPREAKVQWKVDNALQSGNSQESVTEQDSKDSTYSLSSTLTLSKADYEKHKVYACEVTHQGLSSPVTKSFNRGEC | 8.9 | 0.09 | 13.6 |  | 
2 | M103205H795-MY280 (heavy chain) with M103202L889-SK1 (light chain) (antibody, human IgG1, kappa, name in EU numbering, Substitutions introduced into M103205H795-SG1; positions in EU numbering) heavy: QVTLKESGPVLVKPTETLTLTCTVSGIDLSHDDISWVRQAPGKGLEWVGIISYAGSTYYASWAKGRLTISKDTSKNQVVLTMTNMDPVDTATYYCARGVPAYSHGGDLWGQGTLVTVSSASTKGPSVFPLAPSSKSTSGGTAALGCLVKDYFPEPVTVSWNSGALTSGVHTFPAVLQSSGLYSLSSVVTVPSSSLGTQTYICNVNHKPSNTKVDKKVEPKSCDKTHTCPPCPAPELLVGPSVFLFPPKPKDTLMISRTPEVTCVVVDVSDEDPEVKFNWYVDGVEVHNAKTKPREELYNSTYRVVSVLTVLHQDWLNGKEYKCKVSNKALPKPIEKTISKAKGQPREPQVYTLPPSREEMTKNQVSLTCLVKGFYPSDIAVEWESNGQPENNYKTTPPVLDSDGSFFLYSKLTVDKSRWQQGNVFSCSVMHEALHNHYTQKSLSLSP light: DIVMTQSPATLSLSPGERATLSCTSSQSVYHANWLSWFQQKPGQPPKLLIYWASTLAYGVPSRFSGSGSGTDFTLTISSLQPEDAATYYCAGGYGGGRYAFGQGTKVEIKRTVAAPSVFIFPPSDEQLKSGTASVVCLLNNFYPREAKVQWKVDNALQSGNSQESVTEQDSKDSTYSLSSTLTLSKADYEKHKVYACEVTHQGLSSPVTKSFNRGEC | 3.7 | 0.2 |  |  | 
3 | MS1032LO19-SG1071 (antibody, tied to rows r14/r32 by row order only; also called MS103240H795-SG1071; copies: 2 + 2) heavy: QVQLVESGGGLVQPGGSLRLSCAVSGIDLSHDDISWVRQAPGKGLEWVSIISYAGSTYYASWAKGRLTISKDTSKNQVVLTMTNMDPVDTATYYCARGVPAYSHGGDLWGQGTLVTVSSASTKGPSVFPLAPSSKSTSGGTAALGCLVKDYFPEPVTVSWNSGALTSGVHTFPAVLQSSGLYSLSSVVTVPSSSLGTQTYICNVNHKPSNTKVDKKVEPKSCDKTHTCPPCPAPELLNGPSVFLFPPKPKDTLMISRTPEVTCVVVDVSDEDPEVKFNWYVDGVEVHNAKTKPREELYNSTYRVVSVLTVLHRDWLNGKEYKCKVSNKALPKPIEKTISKAKGQPREPQVYTLPPSREEMTKNQVSLTCLVKGFYPSDIAVEWESNGQPENNYKTTPPVLDSDGSFFLYSKLTVKKSRWQQGNVFSCSVLHEALHAHTTRKELSLSP light: DIVMTQSPATLSLSPGERATLSCTTSQSVYHENWLSWFQQKPGQPPKLLIYWASTLAYGVPSRFSGSGSGTDFTLTISSLQPEDAATYYCAGGYGGGRYAFGQGTKVEIKRTVAAPSVFIFPPSDEQLKSGTASVVCLLNNFYPREAKVQWKVDNALQSGNSQESVTEQDSKDSTYSLSSTLTLSKADYEKHKVYACEVTHQGLSSPVTKSFNRGEC |  |  |  | 0.07 | 5.7

Reference: US20250076311A1 (Chugai, published 2025)
